The supplement of paper PMC7125110
± gives the standard error. For part of these data: Variants at the floor of the assay were thinned out.

B1: glmS ribozyme (parent)
chain: AUAAAAGCGCCAGAACUACAGAAAUGUAGUUGACGAGGAGGAGGUUUAUCGAAUUUUCGGCGGAUGCCUCCAAA

Key:
Conditions in all cases: with glucosamine-6-phosphate
glucosamine-6-phosphate [1] = variants of: B1; test: kcat; higher = faster cleavage; RNA array
Outline: (§1)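 kcat and KM were obtained from weighted Michaelis–Menten fits across concentrations of kobs values. Those came from one- or two-exponential decay fits to per-tile medians normalised to baseline and to non-cleaving reference variants. The variants were barcoded ribozymes transcribed in situ by E. coli RNA polymerase on sequenced MiSeq chips and tracked through a hybridised Cy3 probe at 37 °C, with 40 μM to 10 mM glucosamine-6-phosphate in HEPES/KCl/Mg(OAc)2 buffer flowed in.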

glucosamine-6-phosphate [2] = variants of: B1; test: self-cleavage kobs at 160 uM GlcN6P; higher = faster cleavage; RNA array
Outline: as §1

glucosamine-6-phosphate [3] = variants of: B1; test: self-cleavage kobs at 640 uM GlcN6P; higher = faster cleavage; RNA array
Outline: as §1

glucosamine-6-phosphate [4] = variants of: B1; test: self-cleavage kobs at 2500 uM GlcN6P; higher = faster cleavage; RNA array
Outline: as §1

glucosamine-6-phosphate [5] = variants of: B1; test: self-cleavage kobs at 10000 uM GlcN6P; higher = faster cleavage; RNA array
Outline: as §1

glucosamine-6-phosphate [6] = variants of: B1; test: KM; higher = weaker cofactor use; RNA array
Outline: as §1

glucosamine-6-phosphate [7] = variants of: B1; test: self-cleavage kobs at 40 uM GlcN6P; higher = faster cleavage; RNA array
Outline: as §1

| Variant | kcat (glucosamine-6-phosphate [1]) [s⁻¹] | self-cleavage kobs at 160 uM GlcN6P (glucosamine-6-phosphate [2]) [s⁻¹] | self-cleavage kobs at 640 uM GlcN6P (glucosamine-6-phosphate [3]) [s⁻¹] | self-cleavage kobs at 2500 uM GlcN6P (glucosamine-6-phosphate [4]) [s⁻¹] | self-cleavage kobs at 10000 uM GlcN6P (glucosamine-6-phosphate [5]) [s⁻¹] | KM (glucosamine-6-phosphate [6]) [mM] | self-cleavage kobs at 40 uM GlcN6P (glucosamine-6-phosphate [7]) [s⁻¹] |
| --- | --- | --- | --- | --- | --- | --- | --- |
| U31A G37A | 0.0007 ± 0.00026 | 6.91e-05 ± 1.3e-05 | 0.000245 ± 3.6e-05 | 0.000309 ± 7.3e-05 | 0.000939 ± 0.00018 | – | – |
| C11A U31G | 0.000375 ± 9.9e-05 | – | 4.58e-05 ± 1.1e-05 | 0.000179 ± 3.7e-05 | 0.000253 ± 5.7e-05 | 3.9 ± 1.6 | – |
| A6U G66A | 0.000205 ± 1.7e-05 | – | 3.28e-05 ± 1.3e-05 | 9.12e-05 ± 1.4e-05 | 0.000155 ± 1.9e-05 | 3.17 ± 0.6 | – |
| A14U G41U | 0.000307 ± 3.4e-05 | 4.48e-05 ± 7.9e-06 | 0.000109 ± 1.4e-05 | 0.000292 ± 5.4e-05 | 0.000271 ± 3.1e-05 | 1.01 ± 0.22 | – |
| A33G C67G | 1.67e-05 ± 4.8e-06 | – | – | – | – | – | – |
| G37A G41C | 2.41e-05 ± 9.5e-06 | – | – | 3.87e-05 ± 1.5e-05 | – | – | – |
| G63C U69A | 1.18e-05 ± 4.3e-06 | – | – | – | – | – | – |
| G62A C71G | 1.44e-05 ± 2.8e-06 | – | – | – | – | – | – |
| A6C U54G | 0.000119 ± 4.3e-06 | – | – | 3.94e-05 ± 9.9e-06 | 7.93e-05 ± 1.1e-05 | 4.98 ± 0.41 | – |
| A39C C58G | 1.1e-05 ± 2.2e-06 | – | – | – | – | – | – |
| C50U U55G | 4.41e-05 ± 2.5e-06 | – | 2.74e-05 ± 1.4e-05 | 4.31e-05 ± 7.9e-06 | 4.07e-05 ± 6.8e-06 | 0.304 ± 0.13 | – |
| A6U A53U | 0.000209 ± 3.5e-05 | – | – | 0.000114 ± 1.6e-05 | 0.000159 ± 2.3e-05 | 2.57 ± 1.1 | – |
| A12C G38C | 1.42e-05 ± 5.2e-06 | – | – | – | – | – | – |
| A42G C50U | 0.000135 ± 1.2e-05 | – | – | 3.96e-05 ± 1.9e-05 | 8.57e-05 ± 1.3e-05 | 5.81 ± 1.2 | – |
| G63A C70A | 1.85e-05 ± 4.5e-06 | – | – | – | – | – | – |
| U47C U56C A64G | 6.84e-05 ± 1.6e-05 | – | 6.85e-05 ± 1.9e-05 | 5.93e-05 ± 1.5e-05 | – | – | – |
| C34A G37U C68U | < 1e-05 | – | – | – | – | – | < 1e-05 |
| G13A A64G | 0.0011 ± 0.0002 | – | 0.000113 ± 2.2e-05 | 0.000246 ± 5e-05 | 0.000665 ± 6.7e-05 | 6.92 ± 2.2 | – |
| A14G C16U G43A C67G | 0.00284 ± 0.00076 | 0.000207 ± 7.1e-05 | 0.000459 ± 8.8e-05 | 0.00221 ± 0.00072 | 0.00217 ± 0.00045 | 2.84 ± 1.1 | 4.98e-05 ± 2.2e-05 |
| G41C U45A | 0.000121 ± 5.5e-06 | – | 4.19e-05 ± 7.6e-06 | – | 0.000108 ± 1.1e-05 | 1.24 ± 0.16 | – |
| G37A G59U C68G | < 1e-05 | – | – | – | – | – | – |
| C10U A53G | 2.78e-05 ± 1.2e-06 | – | – | – | 1.69e-05 ± 7.4e-06 | 6.42 ± 0.6 | < 1e-05 |
